Reference: patent US20070203087A1

Biological target: aggrecan (core protein carrying chondroitin sulfate chains) made by rat chondrosarcoma LTC cells (rat) (UniProt P07897)

“human chondroitin sulfate N-acetylgalactosaminyltransferase-1 (enzyme)” was tested, and the chondroitin sulfate synthesis activity (35S sulfate label in chondroitinase ABC-digested GAG fractions of transfected LTC cells and culture medium) was 2.2 fold.

With “human chondroitin sulfate glucuronyltransferase (enzyme)” the chondroitin sulfate synthesis activity (35S sulfate label in chondroitinase ABC-digested GAG fractions of transfected LTC cells and culture medium) was 1.6 fold.
